Results on 1 molecule are retold here after publication PMC8189464, “SARS-CoV-2 Envelope (E) protein interacts with PDZ-domain-2 of host tight junction protein ZO1” (PLoS ONE, 2021).

This test has as its target T1, GST-PDZ domain #2 of human Zona Occludens-1 (ZO1) (human, UniProt Q07157 186-264).
T1 construct: second PDZ domain (PDZ domain #2) of human Zona Occludens-1 (ZO1), from plasmid pGEX-ZO1-2/3; also called GST-ZO1 PDZ domain #2; GST-ZO1-PDZ-2; source: E. coli BL21(DE3), purified (glutathione-Sepharose 4B); on the array: purified GST fusion protein
T1 sequence (looked up): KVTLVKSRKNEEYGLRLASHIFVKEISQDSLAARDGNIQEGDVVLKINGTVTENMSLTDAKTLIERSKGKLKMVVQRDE
In words: AlphaScreen or HTRF; GST protein pre-bound to anti-GST-terbium donor antibody, biotinylated peptide pre-bound to streptavidin-d2 acceptor; serial 1:2 dilutions of both in a matrix; 25 mM HEPES pH 7.4, 150 mM NaCl, 5 mM MgCl2, 0.005% Tween-20; 1 hr incubation; one-site saturation binding fit; Kd at 3 nM GST-ZO1 PDZ domain #2. To be noted: both partners purified.

*: point of attachment. Biotin = O=C1N[C@H]2[C@H](CS[C@H]2CCCCC(=O)*)N1

With Biotin-SRVKNLNSSRVPDLLV-OH (also called WT E peptide; Bt-WT peptide) [SARS-CoV-2 E WT peptide (Biotin-SRVKNLNSSRVPDLLV-COOH)], the Kd turned out to be 29 nM.
